PMC4304120

Key:
thrombin [1] = target: thrombin
thrombin [2] = assay: SPR; BIAcore T100; thrombin (2000 RU) amine-coupled to a CM5 chip; RGD-hirudin or mutants injected at 30 uL/min in 10 mM HEPES, 150 mM NaCl, 0.005% Surfactant P20, pH 7.5; 1:1 Langmuir fit, KD calculated from ka and kd

With recombinant RGD-hirudin the anti-thrombin specific activity (Titration Testing Method, plasma clotting) (thrombin [1]) was 18000 ATU/mg, the Kd (thrombin [2]) was 15.5 nM and the koff (thrombin [2]) was 2.73e-05 s⁻¹. The kon (thrombin [2]) was 1770 M⁻¹ s⁻¹.
RGD-hirudin D55A was tested, and the anti-thrombin specific activity (Titration Testing Method, plasma clotting) (thrombin [1]) was 12000 ATU/mg, the Kd (thrombin [2]) was 1030 nM and the koff (thrombin [2]) was 0.000383 s⁻¹. It also gave a kon (thrombin [2]) of 371 M⁻¹ s⁻¹.
In the case of RGD-hirudin Q53A, the anti-thrombin specific activity (Titration Testing Method, plasma clotting) (thrombin [1]) is reported as 14000 ATU/mg, the Kd (thrombin [2]) is reported as 570 nM and the koff (thrombin [2]) is reported as 3.37e-05 s⁻¹. For the same substance, the kon (thrombin [2]) was 59.2 M⁻¹ s⁻¹.
In the case of RGD-hirudin E57A, the anti-thrombin specific activity (Titration Testing Method, plasma clotting) (thrombin [1]) is reported as 11000 ATU/mg, the Kd (thrombin [2]) is reported as 2410 nM and the koff (thrombin [2]) is reported as 0.000374 s⁻¹. The kon (thrombin [2]) was 155 M⁻¹ s⁻¹.
RGD-hirudin S50A showed an anti-thrombin specific activity (Titration Testing Method, plasma clotting) (thrombin [1]) of 16000 ATU/mg, a Kd (thrombin [2]) of 35 nM and a koff (thrombin [2]) of 3.94e-05 s⁻¹. The kon (thrombin [2]) was 1120 M⁻¹ s⁻¹.
Work on RGD-hirudin I59A yielded an anti-thrombin specific activity (Titration Testing Method, plasma clotting) (thrombin [1]) of 9000 ATU/mg, a Kd (thrombin [2]) of 19000 nM and a koff (thrombin [2]) of 0.00139 s⁻¹. It also gave a kon (thrombin [2]) of 73 M⁻¹ s⁻¹.
Work on RGD-hirudin Y3A yielded an anti-thrombin specific activity (Titration Testing Method, plasma clotting) (thrombin [1]) of 4000 ATU/mg and a koff (thrombin [2]) of 0.00288 s⁻¹.
